Measured values from US20200369769A1.

Target: PD-L1 (UniProt Q9NZQ7)
Test: cell-based or functional assay

Chain of PD-L1 (Q9NZQ7 19-290 limits assumed): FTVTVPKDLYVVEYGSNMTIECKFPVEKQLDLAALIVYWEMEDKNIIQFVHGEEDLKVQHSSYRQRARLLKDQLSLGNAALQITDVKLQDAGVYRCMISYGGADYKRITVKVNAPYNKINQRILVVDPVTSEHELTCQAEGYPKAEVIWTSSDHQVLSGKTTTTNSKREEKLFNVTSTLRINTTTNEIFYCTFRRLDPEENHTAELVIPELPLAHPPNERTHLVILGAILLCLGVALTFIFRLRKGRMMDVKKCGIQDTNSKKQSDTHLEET

IL2 concentration (% over isotype control), mixed lymphocyte reaction (% over isotype control): 247
Substance: anti-PD-L1 antibody (chimera of the variable domain of atezolizumab with human IgG2 domains)
